{"source": "patent US20030135878", "biological_target": "wheat thioredoxin h (WTRXh), 13.5-kDa protein encoded by the 384-bp wtrxh fragment (UniProt O64394)", "sequence (O64394 whole entry, the tested form may be a part)": "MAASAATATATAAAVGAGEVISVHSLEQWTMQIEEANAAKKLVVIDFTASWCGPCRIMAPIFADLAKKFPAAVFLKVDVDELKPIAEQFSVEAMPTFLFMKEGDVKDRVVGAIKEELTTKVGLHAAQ", "data": [{"substance": "Arabidopsis thaliana NTR (NADP-thioredoxin reductase)", "values": [{"measurement": "Relative reduction of albumin-fraction proteins (mBBr fluorescence/protein), Homozygous/Null Segregant, +NADPH/NTR (fold (Homozygous/Null Segregant))", "value": 3.91}]}, {"substance": "barley NTR (NADP-thioredoxin reductase)", "values": [{"measurement": "reduction of DTNB [5,5'-dithiobis(2-nitrobenzoic acid)] via NTR and thioredoxin", "value": "confirmed the ability of barley NTR to reduce wheat thioredoxin h (data not shown)"}]}]}
